# Data from IntAct's records for PubMed 29892012.
# B1: Atos homolog protein B (Homo sapiens), Q7L5A3 (parent)
# chain: MRHVQAEPSPSSEPEAGPSQPPVRQGALQGGLLMGYSPAGGATSPGVYQVSIFSPPAGTSEPHRALKRQAPSTEGPRELKRGPGLGAREGLPPEEPSTVGLLGPEGPGLGLGVASQHFSHRGLCVVEQRSSVTSSWTSGAWSPPCPPSNASCNTLHTRDWASPDPGGQGSLGESPGPAPPGQLHTLDTDLHSLAQIGGKSPVAGVGNGGSLWPRESPGTANGHSPEHTPPGPGPPGPCPTKRRLLPAGEAPDVSSEEEGPAPRRRRGSLGHPTAANSSDAKATPFWSHLLPGPKEPVLDPTDCGPMGRRLKGARRLKLSPLRSLRKGPGLLSPPSASPVPTPAVSRTLLGNFEESLLRGRFAPSGHIEGFTAEIGASGSYCPQHVTLPVTVTFFDVSEQNAPAPFLGIVDLNPLGRKGYSVPKVGTVQVTLFNPNQTVVKMFLVTFDFSDMPAAHMTFLRHRLFLVPVGEEGNANPTHRLLCYLLHLRFRSSRSGRLSLHGDIRLLFSRRSLELDTGLPYELQAVTEAPHNPRYSPLP
# B2: TBC1 domain family member 22B (Homo sapiens), Q9NU19 (parent)
# chain: MAAENSKQFWKRSAKLPGSIQPVYGAQHPPLDPRLTKNFIKERSKVNTVPLKNKKASSFHEFARNTSDAWDIGDDEEEDFSSPSFQTLNSKVALATAAQVLENHSKLRVKPERSQSTTSDVPANYKVIKSSSDAQLSRNSSDTCLRNPLHKQQSLPLRPIIPLVARISDQNASGAPPMTVREKTRLEKFRQLLSSQNTDLDELRKCSWPGVPREVRPITWRLLSGYLPANTERRKLTLQRKREEYFGFIEQYYDSRNEEHHQDTYRQIHIDIPRTNPLIPLFQQPLVQEIFERILFIWAIRHPASGYVQGINDLVTPFFVVFLSEYVEEDVENFDVTNLSQDMLRSIEADSFWCMSKLLDGIQDNYTFAQPGIQKKVKALEELVSRIDEQVHNHFRRYEVEYLQFAFRWMNNLLMRELPLRCTIRLWDTYQSEPEGFSHFHLYVCAAFLIKWRKEILDEEDFQGLLMLLQNLPTIHWGNEEIGLLLAEAYRLKYMFADAPNHYRR
# partner: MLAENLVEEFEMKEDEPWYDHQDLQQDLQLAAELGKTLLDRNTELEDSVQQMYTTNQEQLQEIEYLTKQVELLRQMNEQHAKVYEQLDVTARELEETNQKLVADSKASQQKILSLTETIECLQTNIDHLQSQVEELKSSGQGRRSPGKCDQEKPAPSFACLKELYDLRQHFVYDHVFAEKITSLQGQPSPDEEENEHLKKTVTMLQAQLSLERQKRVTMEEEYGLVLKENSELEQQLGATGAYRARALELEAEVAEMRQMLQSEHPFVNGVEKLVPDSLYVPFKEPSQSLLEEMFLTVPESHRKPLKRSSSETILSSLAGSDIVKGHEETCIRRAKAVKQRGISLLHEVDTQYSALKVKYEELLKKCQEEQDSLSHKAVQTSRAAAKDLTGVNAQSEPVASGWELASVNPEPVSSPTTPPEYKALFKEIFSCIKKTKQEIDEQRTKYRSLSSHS
# B3: Transcription factor RFX3 (Homo sapiens), P48380 (parent)
# chain: MQTSETGSDTGSTVTLQTSVASQAAVPTQVVQQVPVQQQVQQVQTVQQVQHVYPAQVQYVEGSDTVYTNGAIRTTTYPYTETQMYSQNTGGNYFDTQGSSAQVTTVVSSHSMVGTGGIQMGVTGGQLISSSGGTYLIGNSMENSGHSVTHTTRASPATIEMAIETLQKSDGLSTHRSSLLNSHLQWLLDNYETAEGVSLPRSTLYNHYLRHCQEHKLDPVNAASFGKLIRSIFMGLRTRRLGTRGNSKYHYYGIRVKPDSPLNRLQEDMQYMAMRQQPMQQKQRYKPMQKVDGVADGFTGSGQQTGTSVEQTVIAQSQHHQQFLDASRALPEFGEVEISSLPDGTTFEDIKSLQSLYREHCEAILDVVVNLQFSLIEKLWQTFWRYSPSTPTDGTTITESSNLSEIESRLPKAKLITLCKHESILKWMCNCDHGMYQALVEILIPDVLRPIPSALTQAIRNFAKSLEGWLSNAMNNIPQRMIQTKVAAVSAFAQTLRRYTSLNHLAQAARAVLQNTSQINQMLSDLNRVDFANVQEQASWVCQCDDNMVQRLETDFKMTLQQQSTLEQWAAWLDNVMMQALKPYEGRPSFPKAARQFLLKWSFYSSMVIRDLTLRSAASFGSFHLIRLLYDEYMFYLVEHRVAQATGETPIAVMGEFGDLNAVSPGNLDKDEGSEVESEMDEELDDSSEPQAKREKTELSQAFPVGCMQPVLETGVQPSLLNPIHSEHIVTSTQTIRQCSATGNTYTAV
# partner: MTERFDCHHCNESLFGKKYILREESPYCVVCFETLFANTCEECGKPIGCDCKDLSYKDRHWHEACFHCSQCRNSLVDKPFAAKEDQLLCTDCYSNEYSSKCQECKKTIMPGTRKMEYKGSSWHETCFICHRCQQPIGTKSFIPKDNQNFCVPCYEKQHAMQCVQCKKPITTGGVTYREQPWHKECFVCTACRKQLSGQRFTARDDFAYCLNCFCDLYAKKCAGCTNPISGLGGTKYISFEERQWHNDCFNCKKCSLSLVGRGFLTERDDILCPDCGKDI
# B4: Enhancer of mRNA-decapping protein 3 (Homo sapiens), Q96F86 (parent)
# chain: MATDWLGSIVSINCGDSLGVYQGRVSAVDQVSQTISLTRPFHNGVKCLVPEVTFRAGDITELKILEIPGPGDNQHFGDLHQTELGPSGAGCQVGINQNGTGKFVKKPASSSSAPQNIPKRTDVKSQDVAVSPQQQQCSKSYVDRHMESLSQSKSFRRRHNSWSSSSRHPNQATPKKSGLKNGQMKNKDDECFGDDIEEIPDTDFDFEGNLALFDKAAVFEEIDTYERRSGTRSRGIPNERPTRYRHDENILESEPIVYRRIIVPHNVSKEFCTDSGLVVPSISYELHKKLLSVAEKHGLTLERRLEMTGVCASQMALTLLGGPNRLNPKNVHQRPTVALLCGPHVKGAQGISCGRHLANHDVQVILFLPNFVKMLESITNELSLFSKTQGQQVSSLKDLPTSPVDLVINCLDCPENVFLRDQPWYKAAVAWANQNRAPVLSIDPPVHEVEQGIDAKWSLALGLPLPLGEHAGRIYLCDIGIPQQVFQEVGINYHSPFGCKFVIPLHSA
# B5: Glutaredoxin-3 (Homo sapiens), O76003 (parent)
# chain: MAAGAAEAAVAAVEEVGSAGQFEELLRLKAKSLLVVHFWAPWAPQCAQMNEVMAELAKELPQVSFVKLEAEGVPEVSEKYEISSVPTFLFFKNSQKIDRLDGAHAPELTKKVQRHASSGSFLPSANEHLKEDLNLRLKKLTHAAPCMLFMKGTPQEPRCGFSKQMVEILHKHNIQFSSFDIFSDEEVRQGLKAYSSWPTYPQLYVSGELIGGLDIIKELEASEELDTICPKAPKLEERLKVLTNKASVMLFMKGNKQEAKCGFSKQILEILNSTGVEYETFDILEDEEVRQGLKAYSNWPTYPQLYVKGELVGGLDIVKELKENGELLPILRGEN
# B6: Ligand of Numb protein X 2 (Homo sapiens), Q8N448 (parent)
# chain: MGTTSDEMVSVEQTSSSSLNPLCFECGQQHWTRENHLYNYQNEVDDDLVCHICLQPLLQPLDTPCGHTFCYKCLRNFLQEKDFCPLDRKRLHFKLCKKSSILVHKLLDKLLVLCPFSSVCKDVMQRCDLEAHLKNRCPGASHRRVALERRKTSRTQAEIENENGPTLLDPAGTLSPEADCLGTGAVPVERHLTSASLSTWSEEPGLDNPAFEESAGADTTQQPLSLPEGEITTIEIHRSNPYIQLGISIVGGNETPLINIVIQEVYRDGVIARDGRLLAGDQILQVNNYNISNVSHNYARAVLSQPCNTLHLTVLRERRFGNRAHNHSDSNSPREEIFQVALHKRDSGEQLGIKLVRRTDEPGVFILDLLEGGLAAQDGRLSSNDRVLAINGHDLKYGTPELAAQIIQASGERVNLTIARPGKPQPGNTIREAGNHSSSSQHHTPPPYYSRPSSHKDLTQCVTCQEKHITVKKEPHESLGMTVAGGRGSKSGELPIFVTSVPPHGCLARDGRIKRGDVLLNINGIDLTNLSHSEAVAMLKASAASPAVALKALEVQIVEEATQNAEEQPSTFSENEYDASWSPSWVMWLGLPSTLHSCHDIVLRRSYLGSWGFSIVGGYEENHTNQPFFIKTIVLGTPAYYDGRLKCGDMIVAVNGLSTVGMSHSALVPMLKEQRNKVTLTVICWPGSLV
# partner: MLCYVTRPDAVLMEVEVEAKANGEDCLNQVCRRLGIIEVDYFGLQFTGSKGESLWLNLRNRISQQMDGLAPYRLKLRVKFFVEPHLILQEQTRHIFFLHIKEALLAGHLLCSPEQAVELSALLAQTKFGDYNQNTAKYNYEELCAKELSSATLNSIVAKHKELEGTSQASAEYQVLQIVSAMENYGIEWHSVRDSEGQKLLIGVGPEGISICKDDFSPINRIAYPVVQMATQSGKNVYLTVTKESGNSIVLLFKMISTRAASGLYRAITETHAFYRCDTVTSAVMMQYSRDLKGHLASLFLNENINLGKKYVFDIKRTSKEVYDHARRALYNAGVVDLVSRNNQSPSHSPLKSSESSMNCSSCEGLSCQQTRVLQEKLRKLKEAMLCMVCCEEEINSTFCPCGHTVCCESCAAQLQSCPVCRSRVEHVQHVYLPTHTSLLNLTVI
# B7: Protein VAC14 homolog (Homo sapiens), Q08AM6 (parent)
# chain: MNPEKDFAPLTPNIVRALNDKLYEKRKVAALEIEKLVREFVAQNNTVQIKHVIQTLSQEFALSQHPHSRKGGLIGLAACSIALGKDSGLYLKELIEPVLTCFNDADSRLRYYACEALYNIVKVARGAVLPHFNVLFDGLSKLAADPDPNVKSGSELLDRLLKDIVTESNKFDLVSFIPLLRERIYSNNQYARQFIISWILVLESVPDINLLDYLPEILDGLFQILGDNGKEIRKMCEVVLGEFLKEIKKNPSSVKFAEMANILVIHCQTTDDLIQLTAMCWMREFIQLAGRVMLPYSSGILTAVLPCLAYDDRKKSIKEVANVCNQSLMKLVTPEDDELDELRPGQRQAEPTPDDALPKQEGTASGGPDGSCDSSFSSGISVFTAASTERAPVTLHLDGIVQVLNCHLSDTAIGMMTRIAVLKWLYHLYIKTPRKMFRHTDSLFPILLQTLSDESDEVILKDLEVLAEIASSPAGQTDDPGPLDGPDLQASHSELQVPTPGRAGLLNTSGTKGLECSPSTPTMNSYFYKFMINLLKRFSSERKLLEVRGPFIIRQLCLLLNAENIFHSMADILLREEDLKFASTMVHALNTILLTSTELFQLRNQLKDLKTLESQNLFCCLYRSWCHNPVTTVSLCFLTQNYRHAYDLIQKFGDLEVTVDFLAEVDKLVQLIECPIFTYLRLQLLDVKNNPYLIKALYGLLMLLPQSSAFQLLSHRLQCVPNPELLQTEDSLKAAPKSQKADSPSIDYAELLQHFEKVQNKHLEVRHQRSGRGDHLDRRVVL
# partner: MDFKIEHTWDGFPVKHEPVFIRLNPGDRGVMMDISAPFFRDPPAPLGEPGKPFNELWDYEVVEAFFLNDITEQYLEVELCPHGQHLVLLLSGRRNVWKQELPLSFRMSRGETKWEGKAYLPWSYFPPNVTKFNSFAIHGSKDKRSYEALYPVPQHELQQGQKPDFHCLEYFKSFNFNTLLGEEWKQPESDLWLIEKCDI
# B8: BTB/POZ domain-containing protein KCTD14 (Homo sapiens), Q9BQ13 (parent)
# chain: MWQGCAVERPVGRMTSQTPLPQSPRPRRPTMSTVVELNVGGEFHTTTLGTLRKFPGSKLAEMFSSLAKASTDAEGRFFIDRPSTYFRPILDYLRTGQVPTQHIPEVYREAQFYEIKPLVKLLEDMPQIFGEQVSRKQFLLQVPGYSENLELMVRLARAEAITARKSSVLVCLVETEEQDAYYSEVLCFLQDKKMFKSVVKFGPWKAVLDNSDLMHCLEMDIKAQGYKVFSKFYLTYPTKRNEFHFNIYSFTFTWW
# Variants of: B1
# Settings: with mdfi_human MDFI
row,effect of a mutation on the interaction,Variant
1,with no effect,C381Y

# Variants of: B1
# Settings: with ikzf1_human IKZF1, Q13422
# Sequence of ikzf1_human IKZF1, Q13422 (Q13422 whole entry): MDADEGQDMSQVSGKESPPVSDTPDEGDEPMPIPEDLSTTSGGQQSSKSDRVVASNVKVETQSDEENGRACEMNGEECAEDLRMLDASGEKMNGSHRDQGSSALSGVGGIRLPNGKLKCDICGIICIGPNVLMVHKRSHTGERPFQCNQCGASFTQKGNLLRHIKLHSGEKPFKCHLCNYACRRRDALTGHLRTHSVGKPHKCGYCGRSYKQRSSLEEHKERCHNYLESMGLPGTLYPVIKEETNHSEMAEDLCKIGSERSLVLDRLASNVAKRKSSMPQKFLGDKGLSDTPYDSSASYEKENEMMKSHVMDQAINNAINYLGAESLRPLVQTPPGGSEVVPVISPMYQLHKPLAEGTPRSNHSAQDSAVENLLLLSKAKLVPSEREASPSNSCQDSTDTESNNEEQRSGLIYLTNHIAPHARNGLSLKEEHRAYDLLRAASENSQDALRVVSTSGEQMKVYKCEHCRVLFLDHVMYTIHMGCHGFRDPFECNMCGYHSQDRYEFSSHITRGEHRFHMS
row,effect of a mutation on the interaction,Variant
1,disrupting interaction strength,C381Y

# Variants of: B1
# Settings: with dnja3_human DNAJA3, Q96EY1
# Sequence of dnja3_human DNAJA3, Q96EY1 (Q96EY1 whole entry): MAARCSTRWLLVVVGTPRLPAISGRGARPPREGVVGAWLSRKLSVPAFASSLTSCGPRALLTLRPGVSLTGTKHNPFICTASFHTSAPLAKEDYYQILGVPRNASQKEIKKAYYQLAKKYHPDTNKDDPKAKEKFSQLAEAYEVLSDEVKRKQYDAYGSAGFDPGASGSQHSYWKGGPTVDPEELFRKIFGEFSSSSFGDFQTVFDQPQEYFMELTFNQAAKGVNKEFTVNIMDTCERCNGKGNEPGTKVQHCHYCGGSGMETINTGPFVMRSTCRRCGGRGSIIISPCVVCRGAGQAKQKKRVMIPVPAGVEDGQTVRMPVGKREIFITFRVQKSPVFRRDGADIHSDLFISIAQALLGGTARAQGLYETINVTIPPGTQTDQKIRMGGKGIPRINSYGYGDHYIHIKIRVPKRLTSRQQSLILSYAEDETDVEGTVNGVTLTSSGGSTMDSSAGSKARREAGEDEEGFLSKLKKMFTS
row,effect of a mutation on the interaction,Variant
1,disrupting interaction strength,C381Y

# Variants of: B2
# Settings: with cdr2_human CDR2, Q01850
row,effect of a mutation on the interaction,Variant
1,disrupting interaction strength,A349T

# Variants of: B3
# Settings: with fhl2_human FHL2, Q14192
row,effect of a mutation on the interaction,Variant
1,with no effect,S387C

# Variants of: B3
# Settings: with fhl2_human FHL2, Q14192
# Remark: another data set of the same source
row,effect of a mutation on the interaction,Variant
1,with no effect,Y135D

# Variants of: B4
# Settings: with ddx6_human DDX6, P26196
# Sequence of ddx6_human DDX6, P26196 (P26196 whole entry): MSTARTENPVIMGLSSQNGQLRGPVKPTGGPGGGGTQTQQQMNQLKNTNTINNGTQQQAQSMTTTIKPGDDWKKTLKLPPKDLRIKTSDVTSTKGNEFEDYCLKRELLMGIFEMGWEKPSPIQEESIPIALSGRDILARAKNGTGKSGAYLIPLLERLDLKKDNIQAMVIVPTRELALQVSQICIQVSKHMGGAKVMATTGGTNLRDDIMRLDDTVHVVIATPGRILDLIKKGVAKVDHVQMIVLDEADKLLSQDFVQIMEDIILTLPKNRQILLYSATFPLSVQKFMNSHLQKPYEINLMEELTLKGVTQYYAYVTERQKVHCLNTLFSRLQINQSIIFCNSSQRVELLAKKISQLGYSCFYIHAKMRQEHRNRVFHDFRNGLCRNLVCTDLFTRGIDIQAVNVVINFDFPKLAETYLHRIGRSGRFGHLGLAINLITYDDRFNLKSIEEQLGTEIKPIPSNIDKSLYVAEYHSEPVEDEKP
row,effect of a mutation on the interaction,Variant
1,disrupting interaction strength,F213L

# Variants of: B5
# Settings: with grn_human GRN
row,effect of a mutation on the interaction,Variant
1,with no effect,P145A

# Variants of: B5
# Settings: with cpin1_human CIAPIN1, Q6FI81
# Sequence of cpin1_human CIAPIN1, Q6FI81 (Q6FI81 whole entry): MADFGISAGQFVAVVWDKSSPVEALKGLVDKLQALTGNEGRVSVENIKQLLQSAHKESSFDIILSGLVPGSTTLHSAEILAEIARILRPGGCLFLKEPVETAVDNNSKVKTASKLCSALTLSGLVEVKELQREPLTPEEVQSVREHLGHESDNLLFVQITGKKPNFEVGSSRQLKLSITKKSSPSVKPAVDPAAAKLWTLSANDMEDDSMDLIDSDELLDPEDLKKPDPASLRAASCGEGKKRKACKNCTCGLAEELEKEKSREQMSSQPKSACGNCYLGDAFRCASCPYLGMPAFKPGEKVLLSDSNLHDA
row,effect of a mutation on the interaction,Variant
1,with no effect,P145A

# Variants of: B5
# Settings: with tmm25_human TMEM25, Q86YD3
# Sequence of tmm25_human TMEM25, Q86YD3 (Q86YD3 whole entry): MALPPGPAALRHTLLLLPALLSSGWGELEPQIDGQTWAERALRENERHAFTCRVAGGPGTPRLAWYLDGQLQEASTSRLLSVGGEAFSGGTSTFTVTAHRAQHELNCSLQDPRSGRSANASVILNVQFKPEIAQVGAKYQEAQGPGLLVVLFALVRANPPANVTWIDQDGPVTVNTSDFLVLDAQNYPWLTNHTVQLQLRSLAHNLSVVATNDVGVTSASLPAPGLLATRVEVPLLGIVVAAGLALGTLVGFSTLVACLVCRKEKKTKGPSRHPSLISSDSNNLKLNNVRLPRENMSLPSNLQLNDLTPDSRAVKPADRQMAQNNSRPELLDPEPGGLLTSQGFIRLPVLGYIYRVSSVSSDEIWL
row,effect of a mutation on the interaction,Variant
1,with no effect,P145A

# Variants of: B6
# Settings: with mylip_human MYLIP
row,effect of a mutation on the interaction,Variant
1,with no effect,P669A

# Variants of: B7
# Settings: with cd033_human C4orf33, Q8N1A6
row,effect of a mutation on the interaction,Variant
1,with no effect,A127S

# Variants of: B8
# Settings: with stk16_human STK16, O75716
# Sequence of stk16_human STK16, O75716 (O75716 whole entry): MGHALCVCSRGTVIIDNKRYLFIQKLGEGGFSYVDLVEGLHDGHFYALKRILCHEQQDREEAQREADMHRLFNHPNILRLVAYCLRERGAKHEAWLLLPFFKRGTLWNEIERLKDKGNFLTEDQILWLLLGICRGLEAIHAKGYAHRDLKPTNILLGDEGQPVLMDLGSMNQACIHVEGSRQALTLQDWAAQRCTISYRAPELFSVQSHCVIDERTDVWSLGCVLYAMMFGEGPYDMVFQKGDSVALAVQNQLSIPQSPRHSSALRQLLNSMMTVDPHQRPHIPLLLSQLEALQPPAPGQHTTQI
row,effect of a mutation on the interaction,Variant
1,disrupting interaction strength,V168M
